Measured values published in article PMC7899689.

Assays:
[1] = molecular target: human recombinant HER2 protein (extracellular domain Thr23-Thr652 of human ERBB2 with His tag) (human) (UniProt P04626); experiment: SEC
[2] = molecular target: human recombinant HER2 protein (extracellular domain Thr23-Thr652 of human ERBB2 with His tag) (human) (UniProt P04626); experiment: SEC-MALS

percent of antibody unbound (mixed 1:1) [1]: 40%
percent of antibody unbound (mixed 1:1) [2]: 40%
Substance: trastuzumab stressed at 45°C for 10 days (45C10d) (antibody)
